# According to patent US20240118272A1:
# Tests used:
# [1] = target: CD9(FL)-ALP conjugate (human; bovine); assay: HI-1000 capture immunoassay; calibrator C1, 1.83 mU/L; run 3
# [2] = target: CD9(ECD)-ALP conjugate (human; bovine); assay: HI-1000 capture immunoassay; primary calibrator C4, 50.05 ng/mL; run 1
# [3] = target: CD9(FL)-ALP conjugate (human; bovine); assay: HI-1000 capture immunoassay; calibrator C5, 30 ng/mL; run 2
# [4] = target: CD9(FL)-ALP conjugate (human; bovine); assay: HI-1000 capture immunoassay; calibrator C4, 15 ng/mL; run 2
# [5] = target: CD9(ECD)-ALP conjugate (human; bovine); assay: HI-1000 capture immunoassay; secondary calibrator C3, 14.32 U/L; run 1
# [6] = target: CD9(FL)-ALP conjugate (human; bovine); assay: HI-1000 capture immunoassay; calibrator C3, 7.4 ng/mL; run 2
# [7] = target: CD9(ECD)-ALP conjugate (human; bovine); assay: HI-1000 capture immunoassay; secondary calibrator C4, 129.62 U/L; run 2
# [8] = target: CD9(ECD)-ALP conjugate (human; bovine); assay: HI-1000 capture immunoassay; thawed aliquot 1 of secondary calibrator C1
# [9] = target: CD9(ECD)-ALP conjugate (human; bovine); assay: HI-1000 capture immunoassay; primary calibrator C3, 15.65 ng/mL; run 3
# [10] = target: CD9(FL)-ALP conjugate (human; bovine); assay: HI-1000 capture immunoassay; calibrator C2, 3.7 ng/mL; mean of 3
# [11] = target: CD9(ECD)-ALP conjugate (human; bovine); assay: HI-1000 capture immunoassay; secondary calibrator C2, 3.84 U/L; run 1
# [12] = target: CD9(ECD)-ALP conjugate (human; bovine); assay: HI-1000 capture immunoassay; secondary calibrator C5; mean of 3 aliquots
# [13] = target: CD9(FL)-ALP conjugate (human; bovine); assay: HI-1000 capture immunoassay; calibrator C3, 10.96 mU/L; run 3
# [14] = target: CD9(FL)-ALP conjugate (human; bovine); assay: HI-1000 capture immunoassay; calibrator C2, 5.48 mU/L; run 2
# [15] = target: CD9(FL)-ALP conjugate (human; bovine); assay: HI-1000 capture immunoassay; calibrator C1, 1.0 ng/mL; run 2
# [16] = target: CD9(ECD)-ALP conjugate (human; bovine); assay: HI-1000 capture immunoassay; secondary calibrator C1, 1.02 U/L; run 2
# [17] = target: CD9(ECD)-ALP conjugate (human; bovine); assay: HI-1000 capture immunoassay; secondary calibrator C4; mean of 3 aliquots
# [18] = target: CD9(FL)-ALP conjugate (human; bovine); assay: HI-1000 capture immunoassay; calibrator C4, 15 ng/mL; run 3
# [19] = target: CD9(ECD)-ALP conjugate (human; bovine); assay: HI-1000 capture immunoassay; secondary calibrator C1, 1.02 U/L; run 1
# [20] = target: CD9(ECD)-ALP conjugate (human; bovine); assay: HI-1000 capture immunoassay; thawed aliquot 2 of secondary calibrator C2
# [21] = target: CD9(ECD)-ALP conjugate (human; bovine); assay: HI-1000 capture immunoassay; thawed aliquot 3 of secondary calibrator C1
# [22] = target: CD9(ECD)-ALP conjugate (human; bovine); assay: HI-1000 capture immunoassay; primary calibrator C2, 4.89 ng/mL; run 2
# [23] = target: CD9(ECD)-ALP conjugate (human; bovine); assay: HI-1000 capture immunoassay; secondary calibrator C3, 14.32 U/L; mean of 3
# [24] = target: CD9(FL)-ALP conjugate (human; bovine); assay: HI-1000 capture immunoassay; calibrator C3, 7.4 ng/mL; mean of 3
# [25] = target: CD9(FL)-ALP conjugate (human; bovine); assay: HI-1000 capture immunoassay; calibrator C1, 1.0 ng/mL; mean of 3
# [26] = target: CD9(ECD)-ALP conjugate (human; bovine); assay: HI-1000 capture immunoassay; secondary calibrator C2, 3.84 U/L; mean of 3
# [27] = target: CD9(ECD)-ALP conjugate (human; bovine); assay: HI-1000 capture immunoassay; secondary calibrator C2; mean of 3 aliquots
# [28] = target: CD9(ECD)-ALP conjugate (human; bovine); assay: HI-1000 capture immunoassay; thawed aliquot 2 of secondary calibrator C4
# [29] = target: CD9(ECD)-ALP conjugate (human; bovine); assay: HI-1000 capture immunoassay; secondary calibrator C5, 387.01 U/L; run 3
# [30] = target: CD9(ECD)-ALP conjugate (human; bovine); assay: HI-1000 capture immunoassay; thawed aliquot 3 of secondary calibrator C4
# [31] = target: CD9(FL)-ALP conjugate (human; bovine); assay: HI-1000 capture immunoassay; calibrator C3, 7.4 ng/mL; run 3
# [32] = target: CD9(FL)-ALP conjugate (human; bovine); assay: HI-1000 capture immunoassay; calibrator C5, 30 ng/mL; run 3
# [33] = target: CD9(ECD)-ALP conjugate (human; bovine); assay: HI-1000 capture immunoassay; secondary calibrator C5, 387.01 U/L; mean of 3
# [34] = target: CD9(ECD)-ALP conjugate (human; bovine); assay: HI-1000 capture immunoassay; thawed aliquot 2 of secondary calibrator C3
# [35] = target: CD9(FL)-ALP conjugate (human; bovine); assay: HI-1000 capture immunoassay; calibrator C1, 1.0 ng/mL; run 3
# [36] = target: CD9(ECD)-ALP conjugate (human; bovine); assay: HI-1000 capture immunoassay; primary calibrator C3, 15.65 ng/mL; run 1
# [37] = target: CD9(ECD)-ALP conjugate (human; bovine); assay: HI-1000 capture immunoassay; secondary calibrator C2, 3.84 U/L; run 3
# [38] = target: CD9(ECD)-ALP conjugate (human; bovine); assay: HI-1000 capture immunoassay; secondary calibrator C2, 3.84 U/L; run 2
# [39] = target: CD9(FL)-ALP conjugate (human; bovine); assay: HI-1000 capture immunoassay; calibrator C1, 1.83 mU/L; run 2
# [40] = target: CD9(ECD)-ALP conjugate (human; bovine); assay: HI-1000 capture immunoassay; thawed aliquot 3 of secondary calibrator C5
# Chain of CD9(FL)-ALP conjugate (human; bovine) (chain, as listed by the source, chain 1 of 2): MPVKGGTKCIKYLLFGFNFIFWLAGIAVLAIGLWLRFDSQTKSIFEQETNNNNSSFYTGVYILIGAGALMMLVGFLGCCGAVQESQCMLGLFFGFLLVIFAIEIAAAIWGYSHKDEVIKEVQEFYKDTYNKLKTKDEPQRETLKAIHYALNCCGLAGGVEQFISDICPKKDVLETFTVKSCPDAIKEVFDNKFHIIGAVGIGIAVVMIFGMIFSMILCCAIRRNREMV
# Chain of CD9(FL)-ALP conjugate (human; bovine) (P19111 20-506, chain 2 of 2): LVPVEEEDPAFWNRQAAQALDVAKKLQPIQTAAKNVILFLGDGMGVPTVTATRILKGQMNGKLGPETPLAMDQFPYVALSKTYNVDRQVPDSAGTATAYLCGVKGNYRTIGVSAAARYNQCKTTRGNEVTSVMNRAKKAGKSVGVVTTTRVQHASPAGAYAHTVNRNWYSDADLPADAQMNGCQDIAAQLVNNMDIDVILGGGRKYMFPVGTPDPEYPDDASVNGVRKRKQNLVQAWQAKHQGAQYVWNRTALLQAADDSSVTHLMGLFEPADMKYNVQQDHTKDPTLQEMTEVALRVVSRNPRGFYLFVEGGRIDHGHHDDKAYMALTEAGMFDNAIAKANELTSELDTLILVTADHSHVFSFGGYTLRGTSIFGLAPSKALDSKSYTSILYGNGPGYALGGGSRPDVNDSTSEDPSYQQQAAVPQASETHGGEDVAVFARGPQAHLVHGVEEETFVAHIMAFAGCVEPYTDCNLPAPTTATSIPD
# Chain of CD9(ECD)-ALP conjugate (human; bovine) (chain, as listed by the source, chain 1 of 2): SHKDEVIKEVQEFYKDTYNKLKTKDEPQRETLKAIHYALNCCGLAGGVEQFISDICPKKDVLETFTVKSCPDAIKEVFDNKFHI
# Chain of CD9(ECD)-ALP conjugate (human; bovine) (P19111 20-506, chain 2 of 2): as the sequence (P19111 20-506, chain 2 of 2) above
substance,measurement,setting,value
anti-CD9 antibody (Clone: H19a),Count value,[1],1460 count
same,Count value,[2],22400 count
same,Count value,[3],26900 count
same,Count value,[4],13800 count
same,Count value,[5],7980 count
same,Count value,[6],7020 count
same,Count value,[7],69400 count
same,Count value,[8],818 count
same,Count value,[9],6980 count
same,Count value (av),[10],4280 count
same,Count value,[11],2420 count
same,Count value (av),[12],36300 count
same,Count value,[13],6810 count
same,Count value,[14],3520 count
same,Count value,[15],1550 count
same,Count value,[16],937 count
same,Count value (av),[17],11600 count
same,Count value,[18],13900 count
same,Count value,[19],975 count
same,Count value,[20],1580 count
same,Count value,[21],805 count
same,Count value,[22],2520 count
same,Count value (av),[23],8090 count
same,Count value (av),[24],7020 count
same,Count value (av),[25],1480 count
same,Count value (av),[26],2390 count
same,Count value (av),[27],1560 count
same,Count value,[28],12000 count
same,Count value,[29],209000 count
same,Count value,[30],11400 count
same,Count value,[31],7010 count
same,Count value,[32],26100 count
same,Count value (av),[33],216000 count
same,Count value,[34],4080 count
same,Count value,[35],1470 count
same,Count value,[36],7340 count
same,Count value,[37],2450 count
same,Count value,[38],2300 count
same,Count value,[39],1580 count
same,Count value,[40],35700 count
